Holding throughout (experiment): kinetic pause assay
Data set [1] has as its target NusA NTD-S1;RNA polymerase core (Escherichia coli;Escherichia coli, UniProt P0AFF6;P0A7Z4;P0A8V2;P0A8T7 1-200;1-329;1-1342;1-1407, |).
For data set [2], the target named is NusA NTD-S1-KH;RNA polymerase core (Escherichia coli;Escherichia coli, UniProt P0AFF6;P0A7Z4;P0A8V2;P0A8T7 1-348;1-329;1-1342;1-1407, |).
For data set [3], the target named is NusA NTD;RNA polymerase core (Escherichia coli;Escherichia coli, UniProt P0AFF6;P0A7Z4;P0A8V2;P0A8T7 1-137;1-329;1-1342;1-1407, |).

Chain of NusA NTD-S1;RNA polymerase core (P0AFF6 1-200, chain 1 of 4): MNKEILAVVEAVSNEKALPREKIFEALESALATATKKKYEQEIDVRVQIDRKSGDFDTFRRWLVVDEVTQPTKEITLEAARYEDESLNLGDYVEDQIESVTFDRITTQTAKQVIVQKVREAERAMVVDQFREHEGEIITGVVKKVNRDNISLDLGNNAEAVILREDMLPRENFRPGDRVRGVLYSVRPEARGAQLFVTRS
Chain of NusA NTD-S1;RNA polymerase core (P0A7Z4 whole entry, chain 2 of 4): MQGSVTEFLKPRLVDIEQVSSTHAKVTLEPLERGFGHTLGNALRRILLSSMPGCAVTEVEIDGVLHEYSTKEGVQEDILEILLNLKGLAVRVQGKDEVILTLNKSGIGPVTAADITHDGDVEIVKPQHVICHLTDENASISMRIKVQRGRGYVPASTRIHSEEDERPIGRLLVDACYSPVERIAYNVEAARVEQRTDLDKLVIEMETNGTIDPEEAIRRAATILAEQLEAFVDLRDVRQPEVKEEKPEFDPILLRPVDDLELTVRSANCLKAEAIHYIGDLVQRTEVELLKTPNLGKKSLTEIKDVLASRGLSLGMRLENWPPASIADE
Chain of NusA NTD-S1;RNA polymerase core (P0A8V2 whole entry, chain 3 of 4): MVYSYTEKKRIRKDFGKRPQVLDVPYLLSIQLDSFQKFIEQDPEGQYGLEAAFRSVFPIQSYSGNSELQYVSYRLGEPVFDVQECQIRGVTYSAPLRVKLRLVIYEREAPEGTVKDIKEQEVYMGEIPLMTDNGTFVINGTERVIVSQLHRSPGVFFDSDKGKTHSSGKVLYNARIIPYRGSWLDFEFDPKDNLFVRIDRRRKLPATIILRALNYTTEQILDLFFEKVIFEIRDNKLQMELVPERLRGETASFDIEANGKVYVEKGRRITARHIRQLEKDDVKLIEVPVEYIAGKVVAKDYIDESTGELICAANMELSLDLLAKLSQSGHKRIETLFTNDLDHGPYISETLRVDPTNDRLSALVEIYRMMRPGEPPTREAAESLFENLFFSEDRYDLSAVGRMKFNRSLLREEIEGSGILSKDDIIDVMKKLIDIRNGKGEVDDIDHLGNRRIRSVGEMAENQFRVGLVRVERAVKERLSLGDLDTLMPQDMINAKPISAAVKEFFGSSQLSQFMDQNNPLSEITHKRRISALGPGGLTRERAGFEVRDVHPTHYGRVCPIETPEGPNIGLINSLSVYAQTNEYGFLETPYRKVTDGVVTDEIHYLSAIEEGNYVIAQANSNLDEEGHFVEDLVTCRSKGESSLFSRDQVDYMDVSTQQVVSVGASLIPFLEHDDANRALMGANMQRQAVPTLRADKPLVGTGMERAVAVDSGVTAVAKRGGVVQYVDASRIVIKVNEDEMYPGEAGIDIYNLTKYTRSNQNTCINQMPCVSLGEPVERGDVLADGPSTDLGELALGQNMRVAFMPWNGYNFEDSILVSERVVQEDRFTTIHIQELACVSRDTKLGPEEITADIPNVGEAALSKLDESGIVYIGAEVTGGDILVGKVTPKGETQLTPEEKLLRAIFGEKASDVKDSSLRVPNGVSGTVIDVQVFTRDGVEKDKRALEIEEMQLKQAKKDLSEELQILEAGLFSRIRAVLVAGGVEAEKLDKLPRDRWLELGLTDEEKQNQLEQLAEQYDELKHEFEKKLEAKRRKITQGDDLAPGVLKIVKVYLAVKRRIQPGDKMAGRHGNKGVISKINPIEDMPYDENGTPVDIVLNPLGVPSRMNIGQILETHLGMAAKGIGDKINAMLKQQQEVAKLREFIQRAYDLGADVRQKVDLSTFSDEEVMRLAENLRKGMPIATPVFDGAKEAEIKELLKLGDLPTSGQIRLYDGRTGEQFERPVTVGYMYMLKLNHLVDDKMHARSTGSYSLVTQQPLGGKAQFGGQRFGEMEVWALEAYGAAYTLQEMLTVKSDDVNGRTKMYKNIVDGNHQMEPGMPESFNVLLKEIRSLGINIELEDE
Chain of NusA NTD-S1;RNA polymerase core (P0A8T7 whole entry, chain 4 of 4): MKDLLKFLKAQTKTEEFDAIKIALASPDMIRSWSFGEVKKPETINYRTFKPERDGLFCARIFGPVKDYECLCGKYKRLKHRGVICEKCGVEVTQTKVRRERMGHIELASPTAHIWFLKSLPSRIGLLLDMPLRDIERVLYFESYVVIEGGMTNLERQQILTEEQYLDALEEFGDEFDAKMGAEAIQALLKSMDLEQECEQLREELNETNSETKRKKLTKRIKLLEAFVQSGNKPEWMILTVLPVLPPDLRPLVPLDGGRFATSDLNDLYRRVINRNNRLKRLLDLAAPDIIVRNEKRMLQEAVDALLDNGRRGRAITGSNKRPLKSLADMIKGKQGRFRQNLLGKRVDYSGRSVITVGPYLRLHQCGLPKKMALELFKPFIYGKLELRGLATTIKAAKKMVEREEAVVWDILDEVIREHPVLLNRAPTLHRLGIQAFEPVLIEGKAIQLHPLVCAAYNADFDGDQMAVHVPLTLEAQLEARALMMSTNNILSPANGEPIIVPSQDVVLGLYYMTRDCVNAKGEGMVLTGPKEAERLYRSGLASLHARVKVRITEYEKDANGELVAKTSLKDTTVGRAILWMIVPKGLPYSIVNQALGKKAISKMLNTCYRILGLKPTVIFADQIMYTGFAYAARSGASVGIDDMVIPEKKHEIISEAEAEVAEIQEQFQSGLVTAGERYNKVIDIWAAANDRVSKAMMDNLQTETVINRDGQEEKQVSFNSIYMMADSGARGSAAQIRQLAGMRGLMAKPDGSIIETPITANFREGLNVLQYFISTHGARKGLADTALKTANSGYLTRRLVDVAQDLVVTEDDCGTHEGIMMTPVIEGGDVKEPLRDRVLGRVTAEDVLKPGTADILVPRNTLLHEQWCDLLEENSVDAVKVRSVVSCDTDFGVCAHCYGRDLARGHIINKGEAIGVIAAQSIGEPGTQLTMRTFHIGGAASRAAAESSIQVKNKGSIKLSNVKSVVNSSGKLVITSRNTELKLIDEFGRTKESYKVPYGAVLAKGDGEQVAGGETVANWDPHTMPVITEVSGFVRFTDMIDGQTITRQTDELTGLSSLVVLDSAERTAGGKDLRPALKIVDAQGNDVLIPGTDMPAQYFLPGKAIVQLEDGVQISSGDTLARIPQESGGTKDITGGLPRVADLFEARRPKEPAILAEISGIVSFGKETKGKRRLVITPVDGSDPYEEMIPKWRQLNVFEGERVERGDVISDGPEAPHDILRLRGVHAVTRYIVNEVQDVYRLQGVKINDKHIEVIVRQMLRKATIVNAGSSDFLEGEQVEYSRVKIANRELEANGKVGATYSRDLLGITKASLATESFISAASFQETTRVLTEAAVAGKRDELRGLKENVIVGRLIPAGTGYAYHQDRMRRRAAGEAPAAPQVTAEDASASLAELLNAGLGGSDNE

B1: his PTC scaffold (RNA at U29) (mixed)
DNA 1: GGTCAGTACGTCCATTCGATCTTCGGAAGAGATTCAGAG
DNA 2: CTCTGAATCTCTTCCAGCACACATCAGGACGTACTGACC
RNA: CCUGACUAGUCUUUCAGGCGAUGUGUGCU
For the molecule B1, the Ki in data set [1] stood at 74.6 ± 19.4 nM; in data set [2], 11.8 ± 8.7 nM; in data set [3], 55.4 ± 27.8 nM.

Values taken from PMC3682478.
